# Reference: patent US20240043537A1
# Positions count from the first letter of the chain named.
# B1: DART-A-M1 (bispecific antibody)
# chain 1: DFVMTQSPDSLAVSLGERVTMSCKSSQSLLNSGNQKNYLTWYQQKPGQPPKLLIYWASTRESGVPDRFSGSGSGTDFTLTISSLQAEDVAVYYCQNDYSYPYTFGQGTKLEIKGGGSGGGGEVQLVESGGGLVQPGGSLRLSCAASGFTFSTYAMNWVRQAPGKGLEWVGRIRSKYNNYATYYADSVKDRFTISRDDSKNSLYLQMNSLKTEDTAVYYCVRHGNFGNSYVTWFAYWGQGTLVTVSSGGCGGGKVAALKEKVAALKEKVAALKEKVAALKE
# chain 2: QAVVTQEPSLTVSPGGTVTLTCRSSTGAVTTSNYANWVQQKPGQAPRGLIGGTNKRAPWTPARFSGSLLGGKAALTITGAQAEDEADYYCALWYSNLWVFGGGTKLTVLGGGGSGGGGEVQLVQSGAELKKPGASVKVSCKASGYTFTDYYMKWVRQAPGQGLEWIGDIIPSNGATFYNQKFKGRVTITVDKSTSTAYMELSSLRSEDTAVYYCARSHLLRASWFAYWGQGTLVTVSSGGCGGGEVAALEKEVAALEKEVAALEKEVAALEK
# B2: DART-A-M9 (bispecific antibody)
# chain 1: B1 chain 1 with G223K, T231S
# chain 2: B1 chain 2
# B3: DART-A-M6 (bispecific antibody)
# chain 1: B1 chain 1 with Y229Q, T231S
# chain 2: B1 chain 2
# B4: DART-A-M3 (bispecific antibody)
# chain 1: B1 chain 1 with G226I, T231S
# chain 2: B1 chain 2
# B5: DART-A-M22 (bispecific antibody)
# chain 1: B1 chain 1 with G223K, T231S, W232Y
# chain 2: B1 chain 2
# B6: DART-A-M8 (bispecific antibody)
# chain 1: B1 chain 1 with G223E, T231S
# chain 2: B1 chain 2
# B7: DART-A-M4 (bispecific antibody)
# chain 1: B1 chain 1 with Y229A, T231S
# chain 2: B1 chain 2
# B8: DART-A-M11 (bispecific antibody)
# chain 1: B1 chain 1 with T231S, W232F
# chain 2: B1 chain 2
# Molecular target: CD3 on T-cells (UniProt P07766)
# Assay: cell-based or functional assay
# Chain of CD3 on T-cells (P07766 23-207): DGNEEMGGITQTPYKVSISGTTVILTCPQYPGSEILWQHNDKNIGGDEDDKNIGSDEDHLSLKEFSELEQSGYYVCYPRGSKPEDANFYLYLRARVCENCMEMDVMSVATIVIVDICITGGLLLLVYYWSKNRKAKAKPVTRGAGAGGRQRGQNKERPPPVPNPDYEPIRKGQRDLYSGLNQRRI
"EC50 of cytolysis at 18 hours (CTL assay, Pan-T-cells and MOLM-13, E:T = 5:1)","EC50 of cytolysis at 42 hours (CTL assay, Pan-T-cells and MOLM-13, E:T = 5:1)","R: ratio of 18 hour EC50 to DART-A-WT (CTL assay, Pan-T-cells and MOLM-13, E:T = 5:1)","R: ratio of 42 hour EC50 to DART-A-WT (CTL assay, Pan-T-cells and MOLM-13, E:T = 5:1)",Binder,"max % CytoTox at 18 hours (CTL assay, Pan-T-cells and MOLM-13, E:T = 5:1)","max % CytoTox at 42 hours (CTL assay, Pan-T-cells and MOLM-13, E:T = 5:1)"
19.6 ng/mL,2.34 ng/mL,249,832,B1,32.3%,32.4%
0.075 ng/mL,0.001 ng/mL,1,0.4,B2,38.2%,30.5%
0.162 ng/mL,0.011 ng/mL,2.1,3.9,B3,41.9%,29.5%
0.108 ng/mL,0.006 ng/mL,1.4,2.3,B4,39.7%,28.6%
0.072 ng/mL,0.01 ng/mL,0.9,3.5,B5,38.3%,31.6%
0.069 ng/mL,0.005 ng/mL,0.9,1.7,B6,38.4%,29.4%
0.176 ng/mL,0.011 ng/mL,2.2,3.9,B7,41.7%,29.8%
0.223 ng/mL,0.016 ng/mL,2.8,5.8,B8,48.5%,32.4%

# Molecular target: CD3 (as used for the BIACORE kinetics of Table 11) (UniProt P07766)
# Assay: SPR (BIACORE)
# Chain of CD3 (as used for the BIACORE kinetics of Table 11) (P07766 23-126): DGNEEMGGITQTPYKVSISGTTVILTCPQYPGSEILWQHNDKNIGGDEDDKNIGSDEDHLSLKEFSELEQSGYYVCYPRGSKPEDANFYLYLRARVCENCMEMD
Kd,R (KD ratio to DART-A-WT),R (ka ratio to DART-A-WT),R (kd ratio to DART-A-WT),koff,kon,Binder
159 nM,19,0.8,16,0.065 s⁻¹,408000 M⁻¹ s⁻¹,B1
3.33 nM,0.4,4.3,1.8,0.00716 s⁻¹,2.15e+06 M⁻¹ s⁻¹,B2
28.8 nM,3.5,1.4,4.9,0.0201 s⁻¹,699000 M⁻¹ s⁻¹,B3
18.5 nM,2.3,0.9,2,0.0083 s⁻¹,449000 M⁻¹ s⁻¹,B4
6.6 nM,0.8,4.7,3.8,0.0156 s⁻¹,2.37e+06 M⁻¹ s⁻¹,B5
6.91 nM,0.8,2.3,1.9,0.00784 s⁻¹,1.13e+06 M⁻¹ s⁻¹,B6
25.7 nM,3.1,1.6,5,0.0203 s⁻¹,790000 M⁻¹ s⁻¹,B7
19.2 nM,2.4,2.8,6.5,0.0267 s⁻¹,1.39e+06 M⁻¹ s⁻¹,B8
